T1: DtxR (Corynebacterium diphtheriae, UniProt P0DJL7 P0DJL7:1-226)
T1 sequence: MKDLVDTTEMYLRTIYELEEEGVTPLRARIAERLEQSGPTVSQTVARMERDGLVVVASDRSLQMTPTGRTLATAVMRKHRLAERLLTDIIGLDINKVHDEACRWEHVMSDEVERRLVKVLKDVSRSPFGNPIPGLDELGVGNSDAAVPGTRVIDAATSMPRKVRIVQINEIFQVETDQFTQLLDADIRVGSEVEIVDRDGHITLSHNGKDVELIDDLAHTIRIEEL

T2: SirR (UniProt Q5HRA0 Q5HRA0:1-214)
T2 sequence: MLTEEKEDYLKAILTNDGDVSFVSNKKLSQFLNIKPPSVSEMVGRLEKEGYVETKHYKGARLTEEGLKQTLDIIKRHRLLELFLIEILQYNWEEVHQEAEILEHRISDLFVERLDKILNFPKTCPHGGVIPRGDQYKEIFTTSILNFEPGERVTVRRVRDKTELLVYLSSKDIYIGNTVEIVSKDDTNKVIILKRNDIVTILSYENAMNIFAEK


Key:
Assay in all cases: EMSA
DtxR = target: T1, DtxR; conditions: chain copies: 4
EfaR = EfaR (Enterococcus faecalis, UniProt Q93CH5 Q93CH5:1-222); conditions: tags: untagged (pQN vector); label: 32P
SirR = target: T2, SirR

Binder	binding result (DtxR)	further results
tacPtoxO hybrid promoter/operator (dsDNA) DNA 1: CCCTGTTGACAATTAATCACCGGTACCTATAATTAGGATAGCTTTACCTAATTATTTTACACCC DNA 2: GGGTGTAAAATAATTAGGTAAAGCTATCCTAATTATAGGTACCGGTGATTAATTGTCAACAGGG	binds	
tacP (dsDNA) DNA 1: CCCTGTTGACAATTAATCATCGGCTCGTATAATGTGTGGAATTGTGAGCGGATAACAATTTCA DNA 2: TGAAATTGTTATCCGCTCACAATTCCACACATTATACGAGCCGATGATTAATTGTCAACAGGG	no binding	
efaABC promoter/operator (efa box) (dsDNA) DNA 1: TTTTCTTAAACTATCCCTTATACTGATTTTAAGGCAAACCTAAAAA DNA 2: TTTTTAGGTTTGCCTTAAAATCAGTATAAGGGATAGTTTAAGAAAA		binding result (EfaR): binds
sitABC box (dsDNA) DNA 1: AACTTGACATGTTAAAACTTTAGAGTATATTATAAAATAAATTAGGTTAACCTAAACTTTTTATTAGGAGG DNA 2: CCTCCTAATAAAAAGTTTAGGTTAACCTAATTTATTTTATAATATACTCTAAAGTTTTAACATGTCAAGTT		binding result (SirR): binds
